Test results as given in patent US20210270842A1 (DYAX, published 2021).

Tests used:
[1] = biological target: T1, cleaved high molecular weight kininogen (HMWK) (human, UniProt P01042 19-380; P01042 390-644); test: ELISA on coated M004-B04, 2-chain HMWK titrated after preincubation of the plate with GCP28 peptide at 250 µg/mL; value = C of the printed 4-P fit; triangles, curve on the control's (the callout box on the graph names this curve HKH20: see recheck)
T1 construct: also called cleaved HMWK; 2-chain HMWK
T1 sequence 1: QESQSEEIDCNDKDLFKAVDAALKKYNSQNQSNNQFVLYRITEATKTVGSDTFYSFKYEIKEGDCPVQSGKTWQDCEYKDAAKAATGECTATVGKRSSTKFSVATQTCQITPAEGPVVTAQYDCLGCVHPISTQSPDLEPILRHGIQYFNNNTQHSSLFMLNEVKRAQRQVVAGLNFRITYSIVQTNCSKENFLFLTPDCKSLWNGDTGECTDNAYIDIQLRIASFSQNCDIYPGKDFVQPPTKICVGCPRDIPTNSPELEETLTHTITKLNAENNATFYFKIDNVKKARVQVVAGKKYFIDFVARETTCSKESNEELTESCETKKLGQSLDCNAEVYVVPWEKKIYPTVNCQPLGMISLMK
T1 sequence 2: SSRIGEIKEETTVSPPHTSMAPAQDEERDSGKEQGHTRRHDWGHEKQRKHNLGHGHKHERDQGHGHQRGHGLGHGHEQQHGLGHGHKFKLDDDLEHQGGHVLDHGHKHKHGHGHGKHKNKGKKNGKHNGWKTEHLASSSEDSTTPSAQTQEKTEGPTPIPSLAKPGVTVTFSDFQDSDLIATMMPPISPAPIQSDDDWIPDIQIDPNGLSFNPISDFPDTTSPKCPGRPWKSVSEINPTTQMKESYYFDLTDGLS
Protocol: Following plate washing with PBST, a mixture of 2 mouse monoclonal antibodies (11H05 and 13B12) at 1 μg/mL in 2-chain HMWK assay buffer were added for 1 hour at room temperature. Unbound detection antibodies were washed and a 1:2000 dilution of goat anti-mouse secondary antibody conjugated to horseradish peroxidase (HRP) was added. The assay containing the secondary antibody was incubated for 1 hour at room temperature, and unbound secondary antibody was removed by washing with 2-chain HMWK assay buffer. Signal was detected by the addition of 3,3′,5,5′-tetramethylbenzidine (TMB), an HRP substrate. The reaction was stopped with phosphoric acid. Hydrolysis of a TMB substrate was detected using a microplate reader at 450 nm-630 nm (FIG. 3). […] Using these immunoassay conditions, specifically binding to cleaved HMWK was detected.
To perform the assay, the kininogen peptides were diluted to 250 μg/mL and allowed to preincubate on assay plate. Then, purified 2-chain HMWK in deficient human plasma was diluted 160 and then added to plate.

[2] = biological target: T2, intact high molecular weight kininogen (HMWK) (Homo sapiens, UniProt P01042 19-644); test: sandwich ELISA: Fab coated on 96-well plate, kininogen titrated, detection 11H05 + 13B12 and goat anti-mouse-HRP; value = C, midpoint of the printed 4-P fit; 1-chain HMWK in SBT buffer; weak signal: only two points drawn (about 0.2 at 200, about 0.5 at 2000), fitted top 0.627 against 2.85 for 2-chain HMWK
T2 construct: also called intact HMWK; 1-chain HMWK
T2 sequence: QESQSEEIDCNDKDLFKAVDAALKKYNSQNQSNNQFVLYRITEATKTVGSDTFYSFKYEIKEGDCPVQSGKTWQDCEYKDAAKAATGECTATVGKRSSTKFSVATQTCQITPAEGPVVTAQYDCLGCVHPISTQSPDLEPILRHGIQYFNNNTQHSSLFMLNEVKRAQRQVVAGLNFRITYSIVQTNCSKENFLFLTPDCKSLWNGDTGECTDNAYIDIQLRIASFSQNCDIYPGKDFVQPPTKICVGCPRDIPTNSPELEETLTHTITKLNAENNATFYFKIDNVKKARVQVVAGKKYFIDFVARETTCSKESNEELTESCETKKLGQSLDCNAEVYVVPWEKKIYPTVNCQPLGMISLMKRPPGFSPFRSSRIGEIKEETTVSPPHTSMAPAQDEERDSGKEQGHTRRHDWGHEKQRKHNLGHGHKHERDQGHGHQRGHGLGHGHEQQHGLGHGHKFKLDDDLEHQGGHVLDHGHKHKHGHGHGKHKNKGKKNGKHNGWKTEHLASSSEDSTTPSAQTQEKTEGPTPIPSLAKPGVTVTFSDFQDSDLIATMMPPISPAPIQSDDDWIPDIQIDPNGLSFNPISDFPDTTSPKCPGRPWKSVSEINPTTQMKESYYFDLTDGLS
From the text: Purified cleaved HMWK was spiked into SBT assay buffer (circles) or HMWK-deficient plasma (squares). Purified intact HMWK was spiked into SBT assay buffer (triangles). Purified LMWK was spiked into SBT assay buffer (diamonds). The y-axis presents the ELISA signal in absorbance units, and the x-axis presents the concentration of kininogen in μg/mL.
The following day, the plate was washed and then blocked with 2% BSA (Protease/IgG free) in PBS buffer. Following a wash, samples containing cleaved HMWK in 0.1% BSA buffer in PBS with 0.05% Tween-20 (2-Chain HMWK assay buffer). Purified protein standards (e.g., 2-chain HMWK, intact HMWK or LMWK) were spiked into HMWK-deficient plasma and diluted 1:320 in 2-chain HMWK assay buffer. Following plate washing with PBST, a mixture of 2 mouse monoclonal antibodies (11H05 and 13B12) at 1 μg/mL in 2-chain HMWK assay buffer were added for 1 hour at room temperature. Unbound detection antibodies were washed and a 1:2000 dilution of goat anti-mouse secondary antibody conjugated to horseradish peroxidase (HRP) was added. […] Signal was detected by the addition of 3,3′,5,5′-tetramethylbenzidine (TMB), an HRP substrate. […] Hydrolysis of a TMB substrate was detected using a microplate reader at 450 nm-630 nm (FIG. 3). […] Using these immunoassay conditions, specifically binding to cleaved HMWK was detected.

[3] = biological target: T1, cleaved high molecular weight kininogen …; test: 2-chain HMWK sandwich ELISA standard curve, citrated plasma spiked with 2-chain HMWK, 10% final dilution; capture Fab M0004-B04 as in FIG. 12 B

- EC50 [1]: 0.00941 µg/mL
- EC50 [2]: 1110 µg/mL
- EC50 (read off the curve) [3]: ~0.1 µg/mL
B1: 559B-M0004-B04 (Fab, V domains shown)
VH: EVQLLESGGGLVQPGGSLRLSCAASGFTFSFYVMVWVRQAPGKGLEWVSGISPSGGNTAYADSVKGRFTISRDNSKNTLYLQMNSLRAEDTAVYYCARKLFYYDDTKGYFDFWGQGTLVTVSS
VL: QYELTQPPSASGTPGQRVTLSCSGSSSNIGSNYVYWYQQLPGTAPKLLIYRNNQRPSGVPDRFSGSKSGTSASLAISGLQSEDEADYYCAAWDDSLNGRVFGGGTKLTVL
notes: also called M004-B04
